From the nanobody polyreactivity screen of Harvey et al. (2022)

Test: yeast display, Sf9 membrane polyspecificity reagent, FACS + sequencing; frameworks hold sequencing errors
How it was run: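 A synthetic nanobody library was expressed on Saccharomyces cerevisiae BJ5465 by galactose induction for 36–48 hours. The library was stained for 1 hour at 4 °C with 10% biotinylated, detergent-solubilized Sf9 membrane reagent and enriched with streptavidin microbeads before FACS. Low and high (top ~1%) gates were set on anti-HA fluorescence for expression and streptavidin fluorescence for reagent binding, and each polyreactivity label reflects the gate of origin.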

Row | Sequence | polyreactivity (PSR sort gate)
1 | QVQLVESGGGLVQAGGSLRLSCAASGSILFGNAMGWYRQAPGKERELVAAITVSGGSTYYADSVKGRFTISRDNAKNTVYLQMNSLKPEDTAVYYCAAGGWWHYRPQSYSGPFDYWGQGTQVTVSS | low polyreactivity
2 | QVQLVESRAGLVQAGGSLRLSCAASGRTSWVYAMGWYRHAPGKDRELVAAIRWRGSSTYYADSGKGRFTISRDNAKNTVYLQMNSLKPEVTAVYYCAAAFSFAQSFDSWGQGTQVTVSS | high polyreactivity
3 | QVQLVESGGGLVQAGGSLRLSCAASGSIFQYNAMGWYRQAPGKESELVAVISWSGDTYYADSVKGRFTISRDNAKNTVYLQMNSLKPEDTAVYYCATDVLAWAPNDYWGQGTQVTVSS | low polyreactivity
4 | QVQLVESGGCLFQEGGSLRLSCSASGRIFNTYAMVWYRQAPGKERELVARISSGGTTYYADSVKGRFTISRDNAKNTVYLQMNSLKPEDTAVYFCNVRAVTPTRSRPFRYDYWGQGTQVTVSS | high polyreactivity
5 | QVQLVESGGGLVQAGGSLRLSCAASGRTFKYYAMGWYRQAPGKERELVAAISHSGGSTYYADSVKGRFTISRDNAKNTVYLQMNSLKPEDTAVYYCAADHGDGNYPYYYWGQGTQVTVSS | high polyreactivity
6 | QVQLVESGGGLVQAGGSLSLSCAASGRTFYYYAMGWYRQAPGKERELVAAITSRGTSTYYADSVKGRFTISRDNAKNTVYLQMNSLKPEDTAVYYCAAGFISYYGNCYDYWGQGTQVTVSS | high polyreactivity
7 | QVQLVESGGGLVQAGGSLRLSCAASGRTFPVYAMGWYRQAPGKEREFVAAISYRTGSTYYADSVKGRFTISRDHAKNTVYLQMNSLKPEDTAVYYCAARVSWYYTFYSWGQGTQVTVSS | high polyreactivity
8 | QVQLVESVGGLVQAGGSLRLSCAASYAMAWYRQAPGKERELVATITRTDRTNYADSVKGRFTISRDNAMNTVYFQMNSLKPEDTAVYDCNKVEWSAPGDSRKYGYWGQGTQVTVSS | low polyreactivity
9 | QVQLVESGGGLVQAGGSLRLSCAASGSTFWTNDMGWYRQAPGKERELVAAISQSAGDTYYADSVKGRFTISRDNAKNTVYLQMNSLKPEDTAVYYCAADLVFYPFTWDGYYYWGQGTQVTVSS | low polyreactivity
10 | QVQLVESGGGLVQAGGSLRLSCAASGSIFRGNAMGWYRQAPGKERELVAAISKSGGSTYYADSVKGRFTISRDNAKNTVYLQMNSLKPEDTAVYYCAARTTYLYGMYYWGQGTQVTVSS | low polyreactivity
11 | QVQLVESGGGLVQAGGSLRLSCAASGSTFNTNAMGWYRQAPGKERELVAAITSSGGGTYYADSVKGRFTISRDNAKNTVYLQMNSLKPEDTAVYYCNAVSGWYNSITYDYWGQGTQVTVSS | high polyreactivity
12 | QVQLVESGVGLVQAGGRLRLSCAASGRTFYYYAMGWYRQAAAKERELVAAITTDGGNTFYADSVKGRFTISRDNAKNSVYIQMNSLKPEDSAVYYWAKSDTEGYYWDVPVTFDYGGQGTQVTVSS | low polyreactivity
13 | QVQLVESGGGLVQAGGSLRLSCAASGIIFSWYAMGWYRQAPGKEREFVAAISKSGGRTYYADSVKGRFTISRDNAKNTVYLQMNSLKPEDTAVYYFATGISRDYIYIILRYDYWGQGTQVTVSS | low polyreactivity
14 | QVQLVESGGGLVQAGGSLRLSCAASGFIFGGYALGWYRQAPGKERELVAAISWSGDNTYYADSVKGRFTISRDNAKNTVYLQMNSLKPEDTAVYYCAADSYGQEYDYWGQGTQVTVSS | low polyreactivity
15 | QVQLVESGGGLVQAGGSLRLSCAASGRTLYNYTMGWYRQAPGKERELVATINFSGGSTYYADSVKGRFTISRDNAKNTVYLQMNSLKPEDTAVYYCNARGYHYAYKGAYLGDDYWGQGTQVTVSS | low polyreactivity
16 | QVQLVESGGGLVHAGGSLRLSCAASGRTFNGYVMGWYRQAPGKERELVAAITNRDGSTYYADSVKGRFTISRDNAKNTVYLQMYSLKPEDSAVYYCAAPVWLWADRYDSWGQGTQVTVSS | low polyreactivity

Row | Sequence | polyreactivity (PSR sort gate)
17 | QVQLVESGGGLVQAGGSLRLSCAASGSTISYYAMGWYRQAPGKERELVAAITWNGGSTYYADSVKGRFTISRDNAKNTVYLQMNSLKPEDTAVYYCAKDTYYYDYDYWGQGTQVTVSS | low polyreactivity
18 | QVQLVESGGGLVQAGGSLRLSCAASGSIFWYAMGWYRQAPGKERELVATITSGASTTYADSVKGRFTISRDNPKNTVYLQMNSLKPEDTAVYYCAKGFTYPQTRFGYWGQGTQVTVSS | low polyreactivity
19 | QVQLVESGGGLVKAGGSLRLSCAASGRIDWYYAMGLYRQAPRKERDLVAAISRSGGTTYYADSVKGRFTISRDNAKNSVFLQMNSLQPEDTEVYYCAAVFHAYTGYEAWEEYEYWGQGTQVTVSA | high polyreactivity
20 | QVQLVESGGGLVQAGGSLRLSCAASGIFTRYAMGWYRQAPGKERELVAAISRGGGSTYYADSVKGRFTISRDNAKNTVYLQMNSLKPEDTAVYYCNTYKRPRSPGPKFYYWGQGTQVTVSS | high polyreactivity
21 | QVQLVESGGGLVQAGGSLRLSCAASGSIFWYNAMGWYRQAAGKERELVAAIRWRGGSTYYADSVKGRFTISRDNEKNTVYLQMNSLKPEDTAVYYFAAQVYVSQLYTSYYYWGQGTQVTVSS | high polyreactivity
22 | QVQLVESGGGLVQAGGSLRLSCAASGSIFYYNTMGWSRQSPGKERELVAAINTSGGSTYYADSVKGRFTISRDNATNTDYVQLNSLKPEDTAVYYCAVRYRYRFVAKGYWGQGTQVTVSS | high polyreactivity
23 | QVQLVESGGGLVQAGGILRLSCAASGSTFWPYAMGWYRQAPGKERELVATNRGGGTSTYYADSVKGRFTISRDNAKNTVYLQMNSLKPEDTAVYYCAARGFFTGSYPGYYYWGLGTQVTVSS | high polyreactivity
24 | QVQLVESGGGLVQAGGSLRLSCAASGRTFIFYAMGWYRPAPGNVRELVAAITLRGGGTDYADSVKGRFTISRDNAKNTVYLQMTSQQPEETAVYYCNADGYPVPRRFDPYSYLSDYWGQGTQVTVSS | low polyreactivity
25 | QVQLVESGVGLVQAGGSLRLSCAASGFTISYYTIGWSRQAPGKDRELVAAISSTGVSTYYADSVKGRFTISRDTAKNTVYLPLNSLKPEDTSVYYCAADYYGVYEYYYWGQGTQVTVSS | high polyreactivity
26 | QVQLVESGGGLVQAGGSLRLSCAASGRTFGVNAMGWYRQAPRKERELVAAINRGGSTYYADSVKGRFTISRDNAKNTVYLQMISLNPEDTAVYYCAAYVSAVHGISGYWGQGTQVTVSS | low polyreactivity
27 | QVQHVDSGGGLVQAGGSLRLSCAASGSTFQLYAMGRDRQAPGKERELVASISWSGGSTYYADSVKGRFTISRDNAKNTVYLQMNSLKPEDTAVYSCNDDFWWRYRPGAVFPSYGYWGQGTQVTVSS | low polyreactivity
28 | QVQLVESGGGLVQAGGSLRLSCAASGSIFPAYAMGWYRQAPGKERELVAAITFSGGSTYYADSVKGRFTISRDNAKNTVYLQMNSLKPEDTAVYYCATDSYGWRFNRAITSYGGDYWGQGTQVTVSS | low polyreactivity
29 | QVQLVESCGGLVQAGGSLRLSCAASGRISQNAMGWYRQPPVKERELVAAITFSGGSTYYADSVKGRFTISRDNAKNTVYLQMNSLKPEDTAVYYCNGDYGDWPTAGDYWGQGTQVTVSS | low polyreactivity
30 | QVQLVESGGGLVQAGGSLRLSCAASGFTFDNYAMGWYRQEPGKERELVAAINISGGRTYYADSVKGRFTISRDNAKNTVYLQMNSLKPEDTAVYYCNIYYWYYALDYWGQGTQVTVSS | high polyreactivity
31 | QVQLVESGVGLVQAGGSLRLSCAASGRIFHINAMGWYRQAPGKERELVATISGTDRTTYADSVKGRFTISRDNAKNTVYLQMNSLKPEDTAVYYCAAPTDFLFWEFDYWGQGTQVTVSS | low polyreactivity
